The record followed here is article PMC8362221.

The assay addresses Idelvion (commercial albumin-fused factor IX) (human) (UniProt P02768). Put plainly: SPR. In general terms: In SPR one partner is held on a chip, and binding of the other changes the refractive index at the surface.

Take “soluble monomeric human neonatal Fc receptor, His-tagged (hFcRn‐His) (from UniProt P55899;P61769)”: the Kd (commonly the equilibrium constant for the complex coming apart) was 150 nM.
